Substitutions are numbered along the chain they refer to. Read-outs that look alike come from different tables or passages of the source. Each block holds one binder with its values, some of them ahead of it.
Tests used:
[1] = target: T1, human TGFβ2, mature receptor-binding domain (human, UniProt P09858 303-414 (pig entry), The mature TGFβ2 is a disulfide-linked homodimer of this 112-residue chain. The 4A11 epitope spans both monomers (p-1207).); assay: BIAcore T200
T1 construct: Peprotech; also called TGFb2
T1 sequence: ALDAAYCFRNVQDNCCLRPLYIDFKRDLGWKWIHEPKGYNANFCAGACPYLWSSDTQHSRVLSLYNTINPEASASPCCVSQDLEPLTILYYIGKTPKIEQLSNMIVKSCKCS
Description: (§1) For binding affinity determinations of all humanized 2A10 antibodies, Surface Plasmon Resonance (SPR) measurement with a BIAcore™-T200 instrument was used. Briefly, series S CM5 biosensor chip with protein A was first applied to capture each humanized 2A10 variant to achieve approximately 100 response units (RU) on each flow cell, following by injection of 3-fold serial dilutions of human TGFβ1, TGFβ2 or TGFβ3 (0.02 nM to 5 nM) in HBS-EP buffer (0.01M HEPES pH 7.4, 0.15M NaCl, 3 mM EDTA and 0.05% v/v surfactant P20) at 25° C. with a flow rate of 50 μl/min for kinetics measurement. Association rates (ko.) and dissociation rates (koff) were calculated using a simple one-to-one Langmuir binding model (BIAcore T200 evaluation software version 2.0) to determine the equilibrium dissociation constant (KD), which was calculated as the ratio koff/kₒₙ.
(§2) Binding affinity determinations of all humanized 4A11 antibodies were performed using SPR measurement with a BIAcore™-T200 instrument, as described above in Example 6 ([…]).

[2] = target: T2, human TGFβ3, mature dimeric form (human, UniProt P10600 301-412); assay: BIAcore T200
T2 construct: Peprotech, expressed in E. coli; also called TGFb3
T2 sequence: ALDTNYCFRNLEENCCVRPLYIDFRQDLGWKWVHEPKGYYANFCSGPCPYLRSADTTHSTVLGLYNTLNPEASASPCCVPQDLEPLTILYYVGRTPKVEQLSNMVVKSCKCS
Description: as §1, §2

[3] = target: T1, human TGFβ2, mature receptor-binding …; assay: cell-based or functional assay
[4] = target: T3, human TGFβ1, mature receptor-binding domain (human, UniProt P01137 279-390); assay: cell-based or functional assay
[5] = target: T2, human TGFβ3, mature dimeric form; assay: cell-based or functional assay
[6] = target: T1, human TGFβ2, mature receptor-binding …; assay: cell-based or functional assay; remark: listed apart in the source
[7] = target: T1, human TGFβ2, mature receptor-binding …; assay: cell-based or functional assay; remark: listed apart in the source
[8] = target: T3, human TGFβ1, mature receptor-binding …; assay: cell-based or functional assay; remark: listed apart in the source
[9] = target: T2, human TGFβ3, mature dimeric form; assay: cell-based or functional assay; remark: listed apart in the source

T3 sequence (P01137 279-390 limits assumed): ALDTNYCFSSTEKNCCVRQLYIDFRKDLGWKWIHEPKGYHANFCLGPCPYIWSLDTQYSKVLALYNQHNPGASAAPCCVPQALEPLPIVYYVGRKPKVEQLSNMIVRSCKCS

B1: h4A11.v7.8 (antibody, human IgG1, kappa, N297G)
heavy: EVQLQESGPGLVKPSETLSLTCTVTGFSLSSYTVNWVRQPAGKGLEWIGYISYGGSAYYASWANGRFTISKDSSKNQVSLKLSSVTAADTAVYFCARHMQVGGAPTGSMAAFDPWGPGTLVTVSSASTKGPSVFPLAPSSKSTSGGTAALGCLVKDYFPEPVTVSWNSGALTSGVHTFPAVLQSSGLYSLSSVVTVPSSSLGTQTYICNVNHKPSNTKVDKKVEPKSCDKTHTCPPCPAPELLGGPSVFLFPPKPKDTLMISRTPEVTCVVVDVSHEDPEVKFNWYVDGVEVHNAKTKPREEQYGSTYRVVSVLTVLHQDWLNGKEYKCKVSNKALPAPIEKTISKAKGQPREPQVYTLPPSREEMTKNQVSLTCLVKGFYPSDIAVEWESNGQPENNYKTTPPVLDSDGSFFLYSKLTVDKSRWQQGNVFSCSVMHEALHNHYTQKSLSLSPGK
light: EAVLTQSPGTLSLSPGERATLSCQSSQSVYNNNYLSWFQQKPGQPPRLLIYGASTLTSGVPDRFSGSGSGTDFTLTISRLEPEDFAVYYCAGGYSGSSDKYAFGGGTKVEIKRTVAAPSVFIFPPSDEQLKSGTASVVCLLNNFYPREAKVQWKVDNALQSGNSQESVTEQDSKDSTYSLSSTLTLSKADYEKHKVYACEVTHQGLSSPVTKSFNRGEC
Kd [1]: 0.0045 nM | Kd [2]: 0.0053 nM | HEKBlue TGFβ blocking IC50 [3]: 0.06 nM | HEKBlue TGFβ blocking IC50 [4]: > 200 nM | HEKBlue TGFβ blocking IC50 [5]: 0.03 nM

B2: h4A11.v7.3 (antibody, human IgG1, kappa, N297G)
heavy: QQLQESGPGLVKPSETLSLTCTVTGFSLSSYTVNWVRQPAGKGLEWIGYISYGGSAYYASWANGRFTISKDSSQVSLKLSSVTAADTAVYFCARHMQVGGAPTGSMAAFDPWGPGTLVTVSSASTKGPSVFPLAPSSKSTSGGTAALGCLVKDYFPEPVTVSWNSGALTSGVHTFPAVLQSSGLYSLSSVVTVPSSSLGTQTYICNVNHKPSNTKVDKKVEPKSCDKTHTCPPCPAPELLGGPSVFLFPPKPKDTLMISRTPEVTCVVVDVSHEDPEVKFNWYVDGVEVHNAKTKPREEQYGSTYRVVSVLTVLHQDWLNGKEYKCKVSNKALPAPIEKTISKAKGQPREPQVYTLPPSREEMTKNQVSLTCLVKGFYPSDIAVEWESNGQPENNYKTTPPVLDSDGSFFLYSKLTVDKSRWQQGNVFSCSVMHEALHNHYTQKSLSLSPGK
light: B1 light
HEKBlue TGFβ blocking IC50 [3]: 0.03 nM | HEKBlue TGFβ blocking IC50 [4]: > 33 nM | HEKBlue TGFβ blocking IC50 [5]: 0.03 nM

B3: h4A11.v7.1 (antibody, human IgG1, kappa, N297G)
heavy: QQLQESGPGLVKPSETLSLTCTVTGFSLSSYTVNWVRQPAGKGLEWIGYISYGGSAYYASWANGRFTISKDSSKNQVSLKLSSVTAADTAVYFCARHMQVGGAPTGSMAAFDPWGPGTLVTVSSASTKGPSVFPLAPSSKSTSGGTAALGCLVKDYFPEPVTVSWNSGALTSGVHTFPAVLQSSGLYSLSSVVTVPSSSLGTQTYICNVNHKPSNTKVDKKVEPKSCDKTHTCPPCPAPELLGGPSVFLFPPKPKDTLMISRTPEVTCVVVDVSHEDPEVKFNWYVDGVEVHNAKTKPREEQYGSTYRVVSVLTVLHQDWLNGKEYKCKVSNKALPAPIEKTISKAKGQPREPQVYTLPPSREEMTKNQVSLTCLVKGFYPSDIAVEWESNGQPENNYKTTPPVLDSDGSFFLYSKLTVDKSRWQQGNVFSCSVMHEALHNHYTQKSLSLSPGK
light: B1 light
HEKBlue TGFβ blocking IC50 [3]: 0.09 nM | HEKBlue TGFβ blocking IC50 [4]: > 33 nM | HEKBlue TGFβ blocking IC50 [5]: 0.03 nM

B4: h4A11.v7.2 (antibody, human IgG1, kappa, N297G)
heavy: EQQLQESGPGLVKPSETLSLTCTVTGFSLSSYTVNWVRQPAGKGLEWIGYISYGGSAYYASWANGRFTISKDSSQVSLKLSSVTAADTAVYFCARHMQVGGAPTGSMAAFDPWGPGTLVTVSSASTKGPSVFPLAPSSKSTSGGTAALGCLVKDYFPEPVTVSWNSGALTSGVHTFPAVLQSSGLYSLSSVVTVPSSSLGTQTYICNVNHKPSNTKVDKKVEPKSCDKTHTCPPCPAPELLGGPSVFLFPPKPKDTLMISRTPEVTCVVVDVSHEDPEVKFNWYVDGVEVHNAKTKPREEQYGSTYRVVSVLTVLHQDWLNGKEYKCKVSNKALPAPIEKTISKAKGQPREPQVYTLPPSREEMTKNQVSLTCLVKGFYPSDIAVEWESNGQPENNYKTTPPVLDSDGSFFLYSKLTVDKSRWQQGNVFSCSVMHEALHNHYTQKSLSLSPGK
light: B1 light
HEKBlue TGFβ blocking IC50 [3]: 0.03 nM | HEKBlue TGFβ blocking IC50 [4]: > 33 nM | HEKBlue TGFβ blocking IC50 [5]: 0.01 nM

B7: h4A11.v7.9 (antibody, human IgG1, kappa, N297G, V domains shown)
VH: EQQLQESGPGLVKPSETLSLTCTVTGFSLSSYTVNWIRQPAGKGLEWIGYISYGGSAYYASWANGRFTISKDSSKNQVSLKLSSVTAADTAVYFCARHMQVGGAPTGSMAAFDPWGPGTLVTVSS
VL: EAVLTQSPGTLSLSPGERATLSCQSSQSVYNNNYLSWFQQKPGQPPRLLIYGASTLTSGVPDRFSGSGSGTDFTLTISRLEPEDFAVYYCAGGYSGSSDKYAFGGGTKVEIKR
Kd [1]: 0.0049 nM | Kd [2]: 0.0057 nM | HEKBlue TGFβ blocking IC50 [3]: 0.08 nM | HEKBlue TGFβ blocking IC50 [4]: > 200 nM | HEKBlue TGFβ blocking IC50 [5]: 0.02 nM

B8: h4A11.v7.10 (antibody, human IgG1, kappa, N297G, V domains shown)
VH: B7 VH with I37V, F67V
VL: B7 VL
Kd [1]: 0.0056 nM | Kd [2]: 0.0068 nM | HEKBlue TGFβ blocking IC50 [3]: 0.02 nM | HEKBlue TGFβ blocking IC50 [4]: > 200 nM | HEKBlue TGFβ blocking IC50 [5]: 0.02 nM

B9: h4A11.v7.12 (antibody, human IgG1, kappa, N297G, V domains shown)
VH: B7 VH with I37V, S73T
VL: B7 VL
Kd [1]: 0.006 nM | Kd [2]: 0.0065 nM | HEKBlue TGFβ blocking IC50 [3]: 0.01 nM | HEKBlue TGFβ blocking IC50 [4]: > 200 nM | HEKBlue TGFβ blocking IC50 [5]: 0.03 nM

B19: h4A11.v7.4 (antibody, V domains shown)
VH: B7 VH with I37V
VL: EIVLTQSPGTLSLSPGERATLSCQSSQSVYNNNYLSWFQQKPGQPPRLLIYGASTLTSGVPDRFSGSGSGTDFTLTISRLEPEDFAVYYCAGGYSGSSDKYAFGGGTKVEIK
Kd [1]: 0.0064 nM | Kd [2]: 0.0043 nM | HEKBlue TGFβ blocking IC50 [3]: 0.01 nM | HEKBlue TGFβ blocking IC50 [4]: > 200 nM | HEKBlue TGFβ blocking IC50 [5]: 0.05 nM

B20: h4A11.v7.6 (antibody, V domains shown)
VH: B7 VH with I37V
VL: B19 VL with I2A, P45A
Kd [1]: 0.0058 nM | Kd [2]: 0.0065 nM | HEKBlue TGFβ blocking IC50 [3]: 0.01 nM | HEKBlue TGFβ blocking IC50 [4]: > 200 nM | HEKBlue TGFβ blocking IC50 [5]: 0.01 nM

B21: h4A11.v7.7 (antibody, V domains shown)
VH: B7 VH with I37V
VL: B19 VL with I2A, V60I
Kd [1]: 0.0063 nM | Kd [2]: 0.0061 nM | HEKBlue TGFβ blocking IC50 [3]: 0.04 nM | HEKBlue TGFβ blocking IC50 [4]: > 200 nM | HEKBlue TGFβ blocking IC50 [5]: 0.04 nM

More lines, now with the values ahead:

fold loss of blocking against h4A11.v7 [6]: 4 fold | Kd [1]: 0.0049 nM | Kd [2]: 0.0055 nM | HEKBlue TGFβ blocking IC50 [3]: 0.35 nM | HEKBlue TGFβ blocking IC50 [4]: > 200 nM | HEKBlue TGFβ blocking IC50 [5]: 0.04 nM
B5: h4A11.v7.14 (antibody, human IgG1, kappa, N297G, V domains shown)
VH: B7 VH with I37V, F94Y
VL: B7 VL

Kd [1]: 0.0047 nM | Kd [2]: 0.0048 nM | HEKBlue TGFβ blocking IC50 [3]: 0.09 nM | HEKBlue TGFβ blocking IC50 [4]: > 200 nM | HEKBlue TGFβ blocking IC50 [5]: 0.02 nM
B6: h4A11.v7.15 (antibody, human IgG1, kappa, N297G)
heavy: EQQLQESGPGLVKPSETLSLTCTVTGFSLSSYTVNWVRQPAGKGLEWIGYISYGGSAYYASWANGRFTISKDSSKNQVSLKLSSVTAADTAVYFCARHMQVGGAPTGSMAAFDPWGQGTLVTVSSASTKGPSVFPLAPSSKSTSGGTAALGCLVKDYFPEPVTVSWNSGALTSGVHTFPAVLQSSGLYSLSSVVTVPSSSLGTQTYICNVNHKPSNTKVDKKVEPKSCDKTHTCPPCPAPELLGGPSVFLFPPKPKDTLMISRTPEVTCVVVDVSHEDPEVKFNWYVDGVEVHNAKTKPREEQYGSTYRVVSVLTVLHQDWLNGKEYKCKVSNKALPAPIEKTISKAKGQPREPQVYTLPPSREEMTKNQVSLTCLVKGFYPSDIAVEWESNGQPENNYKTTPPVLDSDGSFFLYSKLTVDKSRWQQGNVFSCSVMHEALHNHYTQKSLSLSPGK
light: B1 light

HEKBlue TGFβ blocking IC50 [7]: 0.02 nM | HEKBlue TGFβ blocking IC50 [8]: > 200 nM | HEKBlue TGFβ blocking IC50 [9]: > 200 nM
B10: h6F12.v1.1 (antibody, human IgG1, kappa, N297G, V domains shown)
VH: EVTLKESGPVLVKPTETLTLTCTVSGFSLTTYNVHWVRQPPGKALEWMGLIWNTGGTRYNSALKSRLTISKDTSKSQVVLTMTNMDPVDTATYYCARDPVPNKWHFDFWGPGTLVTVSS
VL: DIQMTQSPSTLSASVGDRVTITCLASEDIYSNLAWYQQKPGKAPKLLIYDARSLQDGVPSRFSGSESGPEYTLTISSLQPDDFATYFCQQHHAYPFTFGQGTKVEIKR

fold drop in blocking against h6F12.v1 [6]: 4 fold | HEKBlue TGFβ blocking IC50 [7]: 0.08 nM | HEKBlue TGFβ blocking IC50 [8]: > 200 nM | HEKBlue TGFβ blocking IC50 [9]: > 200 nM
B11: h6F12.v1.8 (antibody, human IgG1, kappa, N297G, V domains shown)
VH: B10 VH with G49A
VL: B10 VL with A43S

HEKBlue TGFβ blocking IC50 [7]: 0.03 nM | HEKBlue TGFβ blocking IC50 [8]: > 200 nM | HEKBlue TGFβ blocking IC50 [9]: > 200 nM
B12: h6F12.v1.7 (antibody, human IgG1, kappa, N297G, V domains shown)
VH: B10 VH with M48L
VL: B10 VL with A43S

HEKBlue TGFβ blocking IC50 [7]: 0.02 nM | HEKBlue TGFβ blocking IC50 [8]: > 200 nM | HEKBlue TGFβ blocking IC50 [9]: > 200 nM
B13: h6F12.v1.4 (antibody, human IgG1, kappa, N297G, V domains shown)
VH: B10 VH
VL: B10 VL with A43S, Y71F

HEKBlue TGFβ blocking IC50 [7]: 0.01 nM | HEKBlue TGFβ blocking IC50 [8]: > 200 nM | HEKBlue TGFβ blocking IC50 [9]: > 200 nM
B14: h6F12.v1.3 (antibody, human IgG1, kappa, N297G, V domains shown)
VH: B10 VH
VL: B10 VL with A43S, P69T

fold drop in blocking against h6F12.v1 [6]: 5 to 8 fold | HEKBlue TGFβ blocking IC50 [7]: 0.16 nM | HEKBlue TGFβ blocking IC50 [8]: > 200 nM | HEKBlue TGFβ blocking IC50 [9]: > 200 nM
B15: h6F12.v1.9 (antibody, V domains shown)
VH: B10 VH with P111R
VL: DIQMTQSPSTLSASVGDRVTITCLASEDIYSNLAWYQQKPGKSPKLLIYDARSLQDGVPSRFSGSESGPEYTLTISSLQPDDFATYFCQQHHAYPFTFGQGTKVEIK

fold drop in blocking against h6F12.v1 [6]: 2 fold | HEKBlue TGFβ blocking IC50 [7]: 0.04 nM | HEKBlue TGFβ blocking IC50 [8]: > 200 nM | HEKBlue TGFβ blocking IC50 [9]: > 200 nM
B16: h6F12.v1.5 (antibody, human IgG1, kappa, N297G, V domains shown)
VH: B10 VH
VL: B10 VL with A43S, F87Y

HEKBlue TGFβ blocking IC50 [7]: 0.02 nM | HEKBlue TGFβ blocking IC50 [8]: > 200 nM | HEKBlue TGFβ blocking IC50 [9]: > 200 nM
B17: h6F12.v1.2 (antibody, human IgG1, kappa, N297G, V domains shown)
VH: B10 VH
VL: B10 VL with A43S, E66G

fold drop in blocking against h6F12.v1 [6]: 5 to 8 fold | HEKBlue TGFβ blocking IC50 [7]: 0.11 nM | HEKBlue TGFβ blocking IC50 [8]: > 200 nM | HEKBlue TGFβ blocking IC50 [9]: > 200 nM
B18: h6F12.v1.6 (antibody, human IgG1, kappa, N297G, V domains shown)
VH: B10 VH with V37I
VL: B10 VL with A43S

Source: US20210301005A1 (Genentech, published 2021)
